Starred links: 1 amine or outer side, 2 acyl side, 3 side chain; linkers in the order of their positions; H or OH if unused. Positions of bridges follow the written chain, without caps; N, C: chain ends. Non-standard residues stand in square brackets, D forms with d. Primed or numbered codes have the meaning given here. B5(4) = 2,2-bis(4-pentenyl)glycine = 2-amino-2-(pent-4-en-1-yl)hept-6-enoic acid (stitching residue), C=CCCCC(CCCC=C)(N[*:1])C(=O)[*:2]; B5(5) = 2,2-bis(4-pentenyl)glycine, 2-amino-2-(pent-4-en-1-yl)hept-6-enoic acid (stitching residue), C=CCCCC(CCCC=C)(N[*:1])C(=O)[*:2]; SeN = (S)-5-(((allyloxy)carbonyl)(methyl)amino)-2-amino-2-methylpentanoic acid, C=CCOC(=O)N(C)CCC[C@](C)(N[*:1])C(=O)[*:2]; B5(19) = 2-amino-2-(pent-4-en-1-yl)hept-6-enoic acid (bis(4-pentenyl)glycine), C=CCCCC(CCCC=C)(N[*:1])C(=O)[*:2]; B5 = 2-amino-2-(pent-4-en-1-yl)hept-6-enoic acid, C=CCCCC(CCCC=C)(N[*:1])C(=O)[*:2]; Phe(3,4,5-F3) = N[C@@H](Cc1cc(F)c(F)c(F)c1)C(=O)O; Phe(3,4-F2) = N[C@@H](Cc1ccc(F)c(F)c1)C(=O)O; 2Nal = N[C@@H](Cc1ccc2ccccc2c1)C(=O)O; αAllylPro = C=CC[C@@]1(C(=O)O)CCCN1; S8 = C=CCCCCCC[C@](C)(N)C(=O)O

Sequences and labels used below:
T1: full-length beta-Catenin (Uniprot ID P35222) (Homo sapiens (Human), UniProt P35222 1-781)
T1 construct: Used full-length in the FP and AlphaScreen assays; also called B-Catenin; bCat
T1 sequence: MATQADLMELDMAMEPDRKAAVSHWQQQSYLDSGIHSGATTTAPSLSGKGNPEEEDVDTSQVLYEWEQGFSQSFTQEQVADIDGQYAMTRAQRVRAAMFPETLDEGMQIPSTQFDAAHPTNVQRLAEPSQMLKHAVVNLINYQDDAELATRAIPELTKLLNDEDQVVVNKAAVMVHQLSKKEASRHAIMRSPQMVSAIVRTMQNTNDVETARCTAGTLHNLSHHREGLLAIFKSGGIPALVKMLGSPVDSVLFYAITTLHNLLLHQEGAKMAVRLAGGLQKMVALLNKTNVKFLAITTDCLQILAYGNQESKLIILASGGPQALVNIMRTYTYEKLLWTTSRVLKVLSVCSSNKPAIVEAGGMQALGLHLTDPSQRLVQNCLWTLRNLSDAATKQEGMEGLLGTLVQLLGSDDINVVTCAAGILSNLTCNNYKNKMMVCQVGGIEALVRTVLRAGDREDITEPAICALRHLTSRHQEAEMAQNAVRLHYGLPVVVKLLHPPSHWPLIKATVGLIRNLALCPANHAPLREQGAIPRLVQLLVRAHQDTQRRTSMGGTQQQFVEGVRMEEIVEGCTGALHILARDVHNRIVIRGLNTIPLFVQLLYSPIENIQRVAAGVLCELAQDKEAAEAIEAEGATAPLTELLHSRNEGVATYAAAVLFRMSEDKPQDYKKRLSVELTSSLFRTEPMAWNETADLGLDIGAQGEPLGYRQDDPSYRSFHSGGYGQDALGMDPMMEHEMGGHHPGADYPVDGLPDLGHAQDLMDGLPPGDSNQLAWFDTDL

B1: I-181 (peptide)
peptide: XDIXDEAAFQXFWQ
modifications: not fully specified; As printed: Ac-PL3-Asp-Ile-B5-Asp-Glu-Ala-Ala-Phe-Gln-S8-Phe-Trp-Gln-NH2. N-terminal Ac; C-terminal amide; PL3 (1), B5 (4), S8 (11) stapled by olefin metathesis (PL3-B5 and B5-S8)
notes: Stapled peptide composition; this is the later-eluting isomer composition
B2: I-199 (peptide)
peptide: Ac-[αAllylPro]NA[B5]DEAAFV[S8]FWQ-NH2
modifications: staple 1-4, 4-11
notes: Stapled peptide composition; this is the earlier-eluting isomer composition
B3: I-200 (peptide)
peptide: Ac-[αAllylPro]NA[B5(4)]DEAAFV[S8]FWQ-NH2
modifications: staple 1-4, 4-11
notes: as for B1
B4: I-178 (peptide)
peptide: XDAXDEAAFQXFWH
modifications: not fully specified; As printed: Ac-PL3-Asp-Ala-B5-Asp-Glu-Ala-Ala-Phe-Gln-S8-Phe-Trp-His-NH2. N-terminal Ac; C-terminal amide; PL3 (1), B5 (4), S8 (11) stapled by olefin metathesis (PL3-B5 and B5-S8)
notes: Stapled peptide composition
B5: I-189 (peptide)
peptide: Ac-[αAllylPro]DI[B5(5)]DDAAFQ[SeN]FWH-NH2
modifications: staple 1-4, 4-11; not fully specified; printed as Ac-PL3-Asp-Ile-B5-Asp-Asp-Ala-Ala-Phe-Gln-SeN-Phe-Trp-His-NH2
notes: Stapled peptide composition
B6: I-188 (peptide)
peptide: Ac-[αAllylPro]DI[B5(5)]DDAAFQ[SeN]FWH-NH2
modifications: staple 1-4, 4-11; not fully specified; printed as Ac-PL3-Asp-Ile-B5-Asp-Asp-Ala-Ala-Phe-Gln-SeN-Phe-Trp-His-NH2
notes: Stapled peptide composition
B7: I-180 (peptide)
peptide: XDIXDEAAFQXFWQ
modifications: not fully specified; As printed: Ac-PL3-Asp-Ile-B5-Asp-Glu-Ala-Ala-Phe-Gln-S8-Phe-Trp-Gln-NH2. N-terminal Ac; C-terminal amide; PL3 (1), B5 (4), S8 (11) stapled by olefin metathesis (PL3-B5 and B5-S8)
notes: as for B2
B8: I-211 (peptide)
peptide: Ac-[αAllylPro]DA[B5(4)]DEAA[Phe(3,4,5-F3)]V[S8]FWQ-NH2
modifications: staple 1-4, 4-11; not fully specified; printed as Ac-PL3-Asp-Ala-B5-Asp-Glu-Ala-Ala-345FF-Val-S8-Phe-Trp-Gln-NH2
notes: Stapled peptide composition
B9: I-179 (peptide)
peptide: XDAXDEAAFQXFWH
modifications: not fully specified; As printed: Ac-PL3-Asp-Ala-B5-Asp-Glu-Ala-Ala-Phe-Gln-S8-Phe-Trp-His-NH2. N-terminal Ac; C-terminal amide; PL3 (1), B5 (4), S8 (11) stapled by olefin metathesis (PL3-B5 and B5-S8)
notes: Stapled peptide composition
B10: I-186 (peptide)
peptide: XDAXDEAAFAXFWA
modifications: not fully specified; As printed: Ac-PL3-Asp-Ala-B5-Asp-Glu-Ala-Ala-Phe-Ala-S8-Phe-Trp-Ala-NH2. N-terminal Ac; C-terminal amide; PL3 (1), B5 (4), S8 (11) stapled by olefin metathesis (PL3-B5 and B5-S8)
notes: as for B2

The first assay has as its target T1, full-length beta-Catenin (Uniprot ID …). Put plainly: fluorescence polarization competition; full-length beta-catenin + 5FAM-TCF4(10-53) probe as competitor; peptide titrated. The procedure: The plate was incubated protected from light for 60 minutes at 20° C. prior to read. Reads were performed on a CLARIOstar plate reader (BMG Labtech) in duplicate, and data were fitted to a 1:1 binding model with hill slope using an in-house script. All provided concentrations are final concentrations.
Regarding B1, the half-maximal effective concentration (EC50) was 310 nM.

Consider Ac-[αAllylPro]DA[B5(4)]DEAA[Phe(3,4-F2)]V[S8]F[2Nal]Q-NH2 (staple 1-4, 4-11, Stapled peptide composition) [I-184], for which the half-maximal effective concentration (EC50) came out at 3110 nM. Turning to Ac-[αAllylPro]DA[B5(19)]D[dE]AAFV[S8]FWQ-NH2 (staple 1-4, 4-11, Stapled peptide composition) [I-182], the EC50 turned out to be 2800 nM.

Regarding B2, the half-maximal effective concentration (EC50) stood at 5000 nM. As for B3, the EC50 came out at 5000 nM. On to Ac-[αAllylPro]DA[B5]NEAAFV[S8]FWQ-NH2 (staple 1-4, 4-11, Stapled peptide composition) [I-198], for which the EC50 was 5000 nM. For the molecule B4, the concentration for a half-maximal effect (EC50) amounted to 1630 nM. As to Ac-[αAllylPro]DA[B5(4)]DEAA[Phe(3,4,5-F3)]V[S8]FWQ-NH2 (staple 1-4, 4-11, Stapled peptide composition) [I-212], the EC50 worked out at 5000 nM. Regarding B5, the EC50 is 1600 nM.

Regarding Ac-[αAllylPro]DI[B5(5)]DEAAFV[S8]FWH-NH2 (staple 1-4, 4-11, Stapled peptide composition) [I-177], the EC50 was 1990 nM.

Consider B6, for which the EC50 was 1600 nM. Still for that read-out and setting: the figure for B7 is 561 nM; for Ac-[αAllylPro]DI[B5(19)]DEAAFQ[S8]FWA-NH2 (staple 1-4, 4-11, Stapled peptide composition) [I-194] it is 1010 nM.

For the molecule Ac-[αAllylPro]DI[B5(5)]DEAAFV[S8]FWH-NH2 (staple 1-4, 4-11, Stapled peptide composition) [I-176], the EC50 was 1990 nM. Regarding B8, the concentration for a half-maximal effect (EC50) came out at 5000 nM. On to B9, for which the EC50 worked out at 1630 nM.

As to B10, the EC50 was 5000 nM.

The target is the same in the next assay. Put plainly: AlphaScreen (nickel chelate) competition; full-length beta-catenin + biotin-TCF4(10-53) probe as competitor; peptide titrated. On the procedure:
Equal volume of the titrated peptide was added to the plate and incubated for 15 minutes at 20° C. Then 4 uL of donor and 4 uL acceptor beads at 10 ug/mL were added to the plate, for a 16 uL reaction pool and protected from light for 60 minutes at 20° C. prior to read. Reads were performed on a CLARIOstar plate reader (BMG Labtech) in duplicate, and data were fitted to a 1:1 binding model with hill slope using an in-house script. All provided concentrations are final concentrations.
For B1, the EC50 was found to be 51 nM. Turning to Ac-[αAllylPro]DA[B5(4)]DEAA[Phe(3,4-F2)]V[S8]F[2Nal]Q-NH2 (staple 1-4, 4-11, Stapled peptide composition) [I-184], the half-maximal effective concentration (EC50) amounted to 628 nM. On the same count and under the same terms, under Ac-[αAllylPro]DA[B5(19)]D[dE]AAFV[S8]FWQ-NH2 (staple 1-4, 4-11, Stapled peptide composition) [I-182] stands 750 nM. For the molecule Ac-[αAllylPro]DA[B5]NEAAFV[S8]FWQ-NH2 (staple 1-4, 4-11, Stapled peptide composition) [I-198], the EC50 was determined as 538 nM. For the molecule B4, the concentration for a half-maximal effect (EC50) stood at 152 nM. With B5, the EC50 stood at 156 nM. For the molecule Ac-[αAllylPro]DI[B5(5)]DEAAFV[S8]FWH-NH2 (staple 1-4, 4-11, Stapled peptide composition) [I-177], the EC50 was determined as 549 nM. As for B6, the EC50 amounted to 156 nM. As for B7, the EC50 was determined as 88 nM. As to Ac-[αAllylPro]DI[B5(19)]DEAAFQ[S8]FWA-NH2 (staple 1-4, 4-11, Stapled peptide composition) [I-194], the concentration for a half-maximal effect (EC50) came out at 105 nM.

As for Ac-[αAllylPro]DI[B5(5)]DEAAFV[S8]FWH-NH2 (staple 1-4, 4-11, Stapled peptide composition) [I-176], the EC50 came out at 549 nM. Turning to B9, the concentration for a half-maximal effect (EC50) is 152 nM. The same measure, in the same setting: under B10 stands 518 nM.

Values taken from US20240116985A1 (published 2024).
